Assay results taken from patent publication US20240002495A1 (MITSUBISHI TANABE PHARMA, published 2024).
Where no end group is shown, it is not given here.

T1: recombinant human IL-33 protein (residues 112 to 270) (ILC0701, ATGen Co. Ltd) (human, UniProt O95760 112-270)
T1 sequence: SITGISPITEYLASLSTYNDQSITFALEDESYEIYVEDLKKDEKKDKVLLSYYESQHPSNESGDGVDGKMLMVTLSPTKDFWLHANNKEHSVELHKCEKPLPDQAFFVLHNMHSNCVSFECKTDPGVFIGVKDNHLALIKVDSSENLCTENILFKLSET

T2: full-length human IL-33 protein (human, UniProt O95760 1-270)
T2 construct: also called Human IL-33 (Full-Length)
T2 sequence: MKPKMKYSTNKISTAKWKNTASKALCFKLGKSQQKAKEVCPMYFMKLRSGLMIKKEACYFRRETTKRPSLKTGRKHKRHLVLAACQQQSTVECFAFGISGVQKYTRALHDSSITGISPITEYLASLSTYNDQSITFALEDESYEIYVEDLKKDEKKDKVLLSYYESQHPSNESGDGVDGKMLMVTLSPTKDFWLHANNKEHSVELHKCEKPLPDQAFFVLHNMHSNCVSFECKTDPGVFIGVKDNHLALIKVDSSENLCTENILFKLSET

T3: DQSITFALEDESYEIYVEDL (PEP14) (human, not fully specified)
T3 peptide: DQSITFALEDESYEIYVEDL

T4: LEDESYEIYV (human, not fully specified (N-terminus))
T4 construct: synthetic peptide
T4 peptide: LEDESYEIYV

T5: EDESYEIYV (human, not fully specified (N-terminus))
T5 construct: synthetic peptide
T5 peptide: EDESYEIYV


How the values were obtained:
[1] = biological target: T1, recombinant human IL-33 protein …; test: cell-based or functional assay
[2] = biological target: T1, recombinant human IL-33 protein …; test: KinExA in PBS, neutral-purified IgG
Experimental: Each test antibody (IgG) (“antibody (IgG)” indicates an antibody having a molecular form of IgG; hereinafter, the same representation is used) was analyzed to confirm the affinity with the human IL-33 protein by measuring dissociation constant (Kd) between each test antibody and the human IL-33 protein in PBS by kinetic exclusion assay (KinExA) (KinExA3200, available from Sapidyne Instruments, Inc.). Mixture samples of a test antibody and a human IL-33 protein (ILC0701, available from ATGen Co. Ltd) were prepared. The human IL-33 protein was titrated to a constant concentration of test antibody (final concentration: several tens of pM to several hundreds of pM) over a wide concentration range of the human IL-33 protein (so that it covered the concentrations of the human IL-33 protein resulting from 12-step serial doubling dilutions, i.e. one- to 2048-fold, with the upper limit of final concentration set to several nM to several tens of nM). The mixture samples were incubated at a room temperature until the antigen-antibody reaction reached equilibrium. After the reaction reached equilibrium, the percentage of free anti-IL-33 antibody in each sample was analyzed using KinExA3200. The values of Kd were calculated by fitting the plot of percentages of anti-IL-33 antibody not bound to the human IL-33 protein (vertical axis) and concentrations of antigen (horizontal axis) to a theoretical formula, using a KinExA data analysis program (KinExA Pro Software v3.5.3, available from Sapidyne Instruments, Inc.). Beads for capturing the anti-IL-33 antibody were prepared by suspending 50 mg of Azlactone beads (Sapidyne) in 1 mL of coating solution (10 μg/mL human IL-33 protein (ILC0701, available from ATGen Co. Ltd), 50 mM sodium carbonate at pH of 9.6) and incubating the solution at a room temperature for one hour. The antibody for detection used was anti-human F(ab)′2-DyLight649 (Jackson, 309-495-006).

[3] = biological target: T1, recombinant human IL-33 protein …; test: KinExA in PBS, alkaline-purified IgG
Experimental: (§1) Mixture samples of a test antibody and a human IL-33 protein (ILC0701, available from ATGen Co. Ltd) were prepared. The human IL-33 protein was titrated to a constant concentration of test antibody (final concentration: several tens of pM to several hundreds of pM) over a wide concentration range of the human IL-33 protein (so that it covered the concentrations of the human IL-33 protein resulting from 12-step serial doubling dilutions, i.e. one- to 2048-fold, with the upper limit of final concentration set to several nM to several tens of nM). The mixture samples were incubated at a room temperature until the antigen-antibody reaction reached equilibrium. After the reaction reached equilibrium, the percentage of free anti-IL-33 antibody in each sample was analyzed using KinExA3200. The values of Kd were calculated by fitting the plot of percentages of anti-IL-33 antibody not bound to the human IL-33 protein (vertical axis) and concentrations of antigen (horizontal axis) to a theoretical formula, using a KinExA data analysis program (KinExA Pro Software v3.5.3, available from Sapidyne Instruments, Inc.). Beads for capturing the anti-IL-33 antibody were prepared by suspending 50 mg of Azlactone beads (Sapidyne) in 1 mL of coating solution (10 μg/mL human IL-33 protein (ILC0701, available from ATGen Co. Ltd), 50 mM sodium carbonate at pH of 9.6) and incubating the solution at a room temperature for one hour. The antibody for detection used was anti-human F(ab)′2-DyLight649 (Jackson, 309-495-006).

[4] = biological target: T1, recombinant human IL-33 protein …; test: SPR (Biacore T200), human IL-33 (ILC0701) immobilized on CM5, Calibration Free Concentration Analysis of the preserved antibody against a control-preserved sample
Experimental: Each alkaline-purified antibody was dissolved in a citrate buffer (50 mM citric acid; 150 mM NaCl (pH: 6.3)) at a concentration of about 10 mg/mL, and was preserved at a temperature of 40° C. for four weeks, to evaluate the preservation stability of each test antibody (IgG). For evaluation of the monomer purity of each antibody after the preservation, monomer purity was measured by size exclusion chromatography analysis (SEC) and microchip capillary SDS electrophoresis (mCE-SDS), and antigen-binding activity was measured by surface plasmon resonance.
In order to confirm the presence of the antigen-binding ability after the preservation, the antigen-binding activity was measured with a surface plasmon resonance system, Biacore T200 (available from GE Healthcare). A human IL-33 protein (ILC0701, available from ATGen Co. Ltd) was immobilized onto a Sensor Chip CM5 (GE Healthcare) (the amount of immobilized protein was about 3000 to 6000 RU) with Amine Coupling Kit (GE Healthcare). Each preserved antibody solution was then diluted to 10-fold with a citric buffer (50 mM citric acid, 150 mM NaCl (pH: 6.3)), and the resulting solution was analyzed to measure the total protein concentration in the solution, using a microvolume spectrophotometer, Astragene II (Astranet Systems, Ltd.) (protein concentration: about 1 mg/mL). The antibody solution after the measurement of the total protein concentration was diluted to 1000-fold with HBS-EP buffer (10 mM HEPES, 150 mM NaCl, 3 mM EDTA, 0.05% (v/v) Surfactant P20 (at pH of 7.4)). The analyte was thereby prepared. The measurement temperature was 25° C. Each analyte was added for 36 seconds at two flow rates of 5 μL/min and 100 μL/min to obtain sensorgrams of the association phase. The sensorgrams were then analyzed by Calibration Free Concentration Analysis using a data analysis program (GE Healthcare, Biacore T200 Evaluation Software v1.0) to determine the concentration of the antibody having antigen-binding activity. As control, each test antibody after preservation at a temperature of 4° C. for four weeks was also analyzed to confirm the antigen-binding activity, to calculate the ratio of antigen-binding activity of each test antibody after the preservation at a temperature of 40° C. for four weeks.

[5] = biological target: T2, full-length human IL-33 protein; test: KinExA in PBS, alkaline-purified IgG
Experimental: as §1

[6] = biological target: T3, DQSITFALEDESYEIYVEDL (PEP14); test: KinExA, alkaline-purified IgG, peptide
Experimental: (§2) The mixture samples were incubated at a room temperature until the antigen-antibody reaction reached equilibrium. After the reaction reached equilibrium, the percentage of free anti-IL-33 antibody in each sample was analyzed using KinExA3200. The values of Kd were calculated by fitting the plot of percentages of anti-IL-33 antibody not bound to the human IL-33 protein (vertical axis) and concentrations of antigen (horizontal axis) to a theoretical formula, using a KinExA data analysis program (KinExA Pro Software v3.5.3, available from Sapidyne Instruments, Inc.). Beads for capturing the anti-IL-33 antibody were prepared by suspending 50 mg of Azlactone beads (Sapidyne) in 1 mL of coating solution (10 μg/mL human IL-33 protein (ILC0701, available from ATGen Co. Ltd), 50 mM sodium carbonate at pH of 9.6) and incubating the solution at a room temperature for one hour. The antibody for detection used was anti-human F(ab)′2-DyLight649 (Jackson, 309-495-006).
(§3) The anti-IL-33 monoclonal antibodies A10-1C04 and A25-3H04 bound to the epitope PEP14 as described in the Example 1. […] These peptides were synthesized, and the affinity with the alkali-purified antibodies was calculated as Kd by the KinExA experiment as in Example 9 (Table 14).

LEDESYEIYV = biological target: T4, LEDESYEIYV; test: KinExA, alkaline-purified IgG, peptide
Experimental: as §2, §3

EDESYEIYV = biological target: T5, EDESYEIYV; test: KinExA, alkaline-purified IgG, peptide
Experimental: as §2, §3

IC50 of inhibition of IL-6 production by HUVEC (alkaline-purified IgG, human IL-33 100 ng/mL) [1] [µg/mL] | inhibition of IFN-γ production by human PBMC (alkaline-purified IgG 10 ug/mL, IL-33 10 ng/mL, IL-12 10 ng/mL) [1] [%] | inhibition of production of IL-5 and IL-13 by KU-812 cells (alkaline-purified IgG 1 ug/mL; IL-33 3 ng/mL with IL-3 and C5a) [1] [%] | percentage of inhibition (%) of IL-6 production by HUVEC (neutral-purified IgG 1 ug/mL, IL-33 100 ng/mL) [1] [%] | Kd [2] [pM] | Kd [3] [pM] | % Active IgG (antigen binding activity after preservation at 40 C for 4 W) [4] [%] | Kd [5] [pM] | Kd [6] [pM] | Kd (LEDESYEIYV) [pM] | Kd (EDESYEIYV) [pM] | Binder
0.27 | 97.5 | ≥ 50 | 74 | 231 | 195 | 102 |  |  |  |  | A23-1A05 (IgG) (antibody, V domains shown, tested as neutral-purified and as alkaline-purified antibody; also called V8; IGN8) VH: EVQLLESGGGLVQPGGSLRLSCAASGFTFSNYYMHWVRQAPGKGLEWVSSISARSRYHYYADSVKGRFTISRDNSKNTLYLQMNSLRAEDTAVYYCARLATRHNAFDIWGQGTLVTVSS VL: QSVLTQPPSASGTPGQRVTISCSGSSSNIGNNAVSWYQQLPGTAPKLLIYASNMRVIGVPDRFSGSKSGTSASLAISGLRSEDEADYYCGAWDDSQKALVFGGGTKLTVL
0.23 | 98.2 | ≥ 50 | 96 | 10.8 | 5.3 | 101 | 10.4 |  |  |  | A26-1F02 (IgG) (antibody, V domains shown, tested as neutral-purified and as alkaline-purified antibody; also called V18; IGN18) VH: EVQLLESGGGLVQPGGSLRLSCAASGFTFSNYYMHWVRQAPGKGLEWVSSISARSSYLYYADSVKGRFTISRDNSKNTLYLQMNSLRAEDTAVYYCARLATRHVAFDIWGQGTLVTVSS VL: QSVLTQPPSASGTPGQRVTISCSGSSSNIGNNAVNWYQQLPGTAPKLLIYASNMRRPGVPDRFSGSKSGTSASLAISGLRSEDEADYYCEAWDDSQKAVVFGGGTKLTVL
0.21 | 97.9 | ≥ 50 | 97 | 5.38 | 7.7 | 102 |  | 1.5 | 11000 | 301000 | A25-3H04 (IgG) (antibody, V domains shown, tested as neutral-purified and as alkaline-purified antibody; also called V17; IGN17) VH: EVQLLESGGGLVQPGGSLRLSCAASGFTFSRYYMHWVRQAPGKGLEWVSSISAQSSHIYYADSVEGRFTISRDNSKNTLYLQMNSLRAEDTAVYYCARLATRQNAFDIWGQGTLVTVSS VL: QSVLTQPPSASGTPGQRVTISCSGSSSNIGRNAVNWYQQLPGTAPKLLIYASNMRRSGVPDRFSGSKSGTSASLAISGLRSEDEADYYCSAWDDSQKVVVFGGGTKLTVL
0.19 | 98.8 | ≥ 50 | 96 | 0.72 | 0.7 | 100 |  |  |  |  | A25-2C02 (IgG) (antibody, V domains shown, tested as neutral-purified and as alkaline-purified antibody; also called V15; IGN15) VH: EVQLLESGGGLVQPGGSLRLSCAASGFTFSNYYMHWVRQAPGKGLEWVSSISARSSYIYYADSVKGRFTISRDNSKNTLYLQMNSLRAEDTAVYYCARLATRNNAFDIWGQGTLVTVSS VL: QSVLTQPPSASGTPGQRVTISCSGSSSNIGRNAVNWYQQLPGTAPKLLIYASNMRVSGVPDRFSGSKSGTSASLAISGLRSEDEADYYCWAWDDSQKVGVFGGGTKLTVL
